The values below come from patent publication US20240299562A1 (priority 2020, published 2024).

The subject of this data set is U87 MG glioblastoma cells subcutaneously implanted in nude NMRI mice. The experiment in a line: In vivo activity of PhAc-ALLP-PABC-MMAE on U87 MG glioblastoma xenograft. Details: species or system mouse. As to conditions: 2 mg/kg iv, once per week. How it is done: The in vivo efficacy of PhAc-ALLP-PABC-MMAE was tested in a mouse GBM model. U87 MG glioblastoma cells were subcutaneously (SC) implanted in nude NMRI mice. In total, 24 adult (9-10 weeks old) nude female NMRI mice (Janvier, France) were subjected to SC tumor cell grafting in the right flank. In total, 5×10^6 U87 MG cells resuspended in PBS plus Matrigel (1:1) were injected in 200 uL final volume. As soon as the tumors were palpable and reached the volume of 200 mm3 the treatment was started. At day zero, mice were randomly divided into 3 groups, based on the tumor volume, in order to have the following experimental sub-cohorts: • control group receiving the vehicle (PBS pH7.2) with a dose of 5 ml/kg, intravenously (iv), once per week (QW); • PhAc-ALLP-PABC-MMAE (2 mg/kg iv, QW); • MMAE (0.9 mg/kg iv, QW).
Treatments were performed once per week for a total of four tail vein administrations/injections (on days 1, 7, 14 and 21). One extra week of observation followed the active treatment phase. During the experiment, tumor volume was measured two times a week and was assessed three-dimensionally with a digital caliper (Mitutoyo, Illinois) using the following formula:
V=4/3π×[(d/2)^2×(D/2)], where d is the minor tumor axis and D is the major tumor axis.

The structures appear in SMILES notation. *1 amine or outer side, *2 acyl side, *3 side chain or, on linkers, in order; H or OH if unused. Where a SMILES comes first, the peptide text is derived from it. [ ]: non-standard residue; d: D form. The star is where a group is joined. X1 = CO[C@@H](C1CCCN1[*:1])[C@@H](C)C(=O)[*:2]; Dil = CC[C@H](C)[C@H](NC)[C@@H](CC(=O)O)OC; PABC = O=C(OCc1ccc(N[*:1])cc1)[*:2]; Phosphonoacetyl = O=C(CP(=O)(O)O)*; X2 = C[C@@H](N*)[C@@H](O)c1ccccc1; NMeV = CN[C@H](C(=O)O)C(C)C

In the case of `CC[C@H](C)[C@@H]([C@@H](CC(=O)N1CCCC1[C@H](OC)[C@@H](C)C(=O)N[C@H](C)[C@@H](O)c1ccccc1)OC)N(C)C(=O)[C@@H](NC(=O)[C@H](C(C)C)N(C)C(=O)OCc1ccc(NC(=O)[C@@H]2CCCN2C(=O)[C@H](CC(C)C)NC(=O)[C@H](CC(C)C)NC(=O)[C@H](C)NC(=O)CP(=O)(O)O)cc1)C(C)C` (some centres unmarked) [PhAc-ALLP-PABC-MMAE] (Phosphonoacetyl-ALLP[PABC][NMeV]V[Dil][X1]-X2), the Macroscopical toxicity entry is “without any hint of macroscopical sign of toxicity”. Further, the “Tumor volume compared to the untreated control group” value (four administrations) is listed as “importantly reduced the tumor volume”.
